# Test results as given in patent US11453711B2, “Fusion proteins of GLP-1 and GDF15 and conjugates thereof” (BEIJING QL BIOPHARMACEUTICAL CO., LTD., priority 2019, dated 2022).
# B1: MLC093: fusion polypeptide SEQ ID NO: 381 conjugated with Moiety B at 33C of Linker (conjugate)
# chain: HGEGTFTSDVSSYLEEQAAKEFIAWLVRGGGGAQPGAQPGAQPGAQPGAQPGAQPGAQPGAQPCQEPGAQPGQEPGAQPGQEPGAQPGQEPGAQPGQEPGAQPGQEPGAQPARQGDHCPLGPGRCCRLHTVRASLEDLGWADWVLSPREVQVTMCIGACPSQFRAANLHAQIKTSLHRLKPDTVPAPCCVPASYNPMVLIQKTDTGVSLQTYDDLLAKDCHCI
# modifications: Moiety B conjugated at linker Cys33
# Test: Separate DIO mice study with inactivated control molecules, daily sc 22 days
# Type: in vivo, DIO mice (C57BL/6 mice on high fat diet)
# Procedure: FIGS. 9A-9G show In vivo efficacy in DIO mice. To evaluate the body weight, food intake and glucose effects of the fusion proteins, 17 week old DIO mice (C57BL/6 mice on high fat diet for 13 weeks) were dosed everyday subcutaneously with different concentrations of proteins for 22 days. […] Data are expressed as mean values and standard error (SEM) for FIGS. 9A and 9C-G. n=5 for each treatment group. For FIG. 9B, a pooled food intake was measured for each treatment group.
# 17 week old DIO male C57BL/6 mice (˜45 g) were injected everyday subcutaneously with designated proteins (i.e., MLC089, MLC093) for 28 days. Food intake and body weight were measured daily and five animals were used for each treatment group. Fasting glucose was also monitored on designated days. Body weight and glucose were monitored for each individual animal, but food intake for each group animals was measured together. Day 1 and Day 28 are first day and last day of molecule dosage. % BW loss=100*(BW on Day n-BW on Day 1)/(BW on Day 1). Cumulative food intake on Day n represents sum of food intake from Day 1 to Day n. Terminal blood was collected and EDTA-2K plasma was prepared and frozen at −80 C for biomarker measurement. Liver was also collected and frozen in liquid nitrogen and store at −80 C. Data are indicated as mean values and standard error (SEM) or pooled values.
molecule,measurement,setting,value
B1,liver triglyceride contents,"Day 22, FIG. 9G, relative to vehicle or MLC114 and MLC113",reduction of liver triglyceride contents
same,efficacy,"separate DIO study, FIG. 9A-9G, versus MLC114 and MLC113",better efficacy than corresponding control molecules having inactivated GLP-1 or GDF15 mutants
same,body weight reduction,"separate DIO study, FIG. 9A, versus MLC114 and MLC113","better body weight reduction, food intake suppression and glucose control"
same,food intake suppression,"separate DIO study, FIG. 9B, versus MLC114 and MLC113","better body weight reduction, food intake suppression and glucose control"
same,glucose control,"separate DIO study, FIG. 9C, versus MLC114 and MLC113","better body weight reduction, food intake suppression and glucose control"
same,plasma triglyceride level,"terminal plasma Day 22, FIG. 9D, relative to vehicle or MLC114 and MLC113","therapeutic efficacy in reducing plasma triglyceride, cholesterol and insulin levels"
same,plasma cholesterol level,"terminal plasma Day 22, FIG. 9E, relative to vehicle or MLC114 and MLC113","therapeutic efficacy in reducing plasma triglyceride, cholesterol and insulin levels"
same,plasma insulin level,"terminal plasma Day 22, FIG. 9F, relative to vehicle or MLC114 and MLC113","therapeutic efficacy in reducing plasma triglyceride, cholesterol and insulin levels"
